Measured values as given in article PMC10572015.

What was measured:
[1] = biological target: endogenous PTB-containing squid proteins
[2] = biological target: phosphotyrosine-binding domain (PTB)-containing axonal proteins

Row | Substance | mean anterograde FAT rate, vesicle motility assay in isolated squid axoplasm; 100 nM GST–AICD co-perfused with an excess of Fe65 PTB2-6xHis as competitor (GST–AICD alone 1.20; Buffer X/2 1.64) [1] | mean retrograde FAT rate, vesicle motility assay in isolated squid axoplasm; 100 nM GST–AICD co-perfused with an excess of Fe65 PTB2-6xHis as competitor (GST–AICD alone 1.02; Buffer X/2 1.23) [1] | mean anterograde FAT rate, vesicle motility assay in isolated squid axoplasm perfused with 100 nM GST–AICD (Buffer X/2 1.64) [2] | mean retrograde FAT rate, vesicle motility assay in isolated squid axoplasm perfused with 100 nM GST–AICD (Buffer X/2 1.23) [2] | mean anterograde FAT rate, vesicle motility assay in isolated squid axoplasm perfused with 100 nM GST–AICDΔNPTY (GST–AICD 1.20; Buffer X/2 1.64) [2] | mean retrograde FAT rate, vesicle motility assay in isolated squid axoplasm perfused with 100 nM GST–AICDΔNPTY (GST–AICD 1.02; Buffer X/2 1.23) [2]
1 | GST–AICD (APP intracellular domain fused to glutathione-S-transferase) (domain or fragment) | 1.4 µm/s | 1.19 µm/s | 1.2 µm/s | 1.02 µm/s | – | –
2 | GST–AICDΔNPTY (domain or fragment) | – | – | – | – | 1.5 µm/s | 1.14 µm/s
